A value given as a limit tells only on which side of the number the result lay.

The nature of data set [1]: Thermostability assay: residual OTA detoxification activity after 10 min incubation at 45-99° C. (T50). Particulars: 0.1 mg/mL protein in 20 mM Tris-HCl pH 7.5, residual OTA detoxification activity relative to 4° C. reference aliquot. Type of data set: physicochemical. In a few lines: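 T50 marks the temperature range at which half the starting OTA-detoxifying activity is lost, versus an unheated 4 °C reference. Samples were 0.1 mg/mL purified protein in 20 mM Tris-HCl pH 7.5, exposed for 10 min to 45, 55, 65, 75, 80, 85, 90, 95 or 99 °C.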

A short description of data set [2]: OTA detoxification activity assay (specific activity, fluorescence reduction ex/em 390/450 nm). Type of data set: biochemical. Conditions: SEQ ID NO: 1 = 100%. The gist of the method:
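Recombinant enzyme preparation with 200 ng/mL OTA in 100 mM sodium phosphate, at pH 6.0 and pH 7.5, 37° C. Degradation followed as the fall in fluorescence at ex/em 390/450 nm. Specific activity taken from the initial linear slope; one unit degrades 1 μmol OTA per min at a starting OTA of […].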

B1: 60 (protein)
chain: MTTRTRILTAFLSLLAANACAADAAPAAPHTVVLRAARMFDGASGKLVDHPQLTIVGNKIVRIAQGDKAEVPAGAEVVDLGDATLLPGFIDAHVHLSGQSSDNWYGDFFDNMMRFPAEQALYGAYYARITLEAGFTSVRDVGSTDWVALGLRNAIDAGKVPGPRMLVSNYAVGSTGGHADQDPIPPHKLPLAGPLQGVCNGPEECRAAVRYQIKYGANVIKFMPSGGVLSLSDPVDAPELSQDEMNAVIGESHAWGRKVAAHAHGDKAAKMAVAAGVDSIEHGSFIEDDTLRAMKAKNVYLVPTISAIAHTEEKIGTFPPVIAEKGRAAAAHLRQTFRHAVQIGVPIALGTDAGVGAHGSNAREFRYMVENGLTPAQALLAGTANAARLLGTFDRVGTLEAGKLADVVAVPGNPIADITVTERPLFVMKDGVVVRRDAVR
modifications: exemplary polypeptide
On to B1, for which the “T50 (temperature at which 50% of the initial activity was maintained)” value in data set [1] was 66-68 °C. Also, in data set [2], the “Specific OTA detoxification activities in % compared to the enzyme of SEQ ID NO: 1, pH 6.0” value is given as 23% and the “Specific OTA detoxification activities in % compared to the enzyme of SEQ ID NO: 1, pH 7.5” value is on record as 61%.

B2: 62 (protein)
chain: MTTRTRILTAFLSLLAANACAADAAPAAPHTVVLRAARMFDGASGKLVDHPQLTIVGNKIVRIAQGDKAEVPAGAEVVDLGDATLLPGFIDAHVHLSGQSSDNWYGDFFDNMMRFPAEQALYGAYYARITLEAGFTSVRDVGSTDWVALGLRNAIDAGKVPGPRMLVSNYAVGSTGGHADQDPIPPHKLPLAGPLQGVCNGPEECRAAVRYQIKYGANVIKFMPSGGVLSLSDPPDAPELSQDEMNAVIGESHAWGRKVAAHAHGDKAAKMAVAAGVDSIEHGSFIEDDTLRAMKAKNVYLVPTISAIAHVEEKIGTFPPVIAEKGRAAAAHLRQTFRHAVQIGVPIALGTDAGVGAHGSNAREFRYMVENGLTPAQALLAGTANAARLLGTFDRVGTLEAGKLADVVAVPGNPIADITVTERPLFVMKDGVVVRRDAVR
modifications: exemplary polypeptide
Consider B2, for which the “T50 (temperature at which 50% of the initial activity was maintained)” value in data set [1] was 63-64 °C. In data set [2], the “Specific OTA detoxification activities in % compared to the enzyme of SEQ ID NO: 1, pH 6.0” value was found to be 35% and the “Specific OTA detoxification activities in % compared to the enzyme of SEQ ID NO: 1, pH 7.5” value turned out to be 26%.

B3: 69 (protein)
chain: MTTRTRILTAFLSLLAANACAADAAPAAPHTVVLRAARMFDGASGKLVDHPQLTIVGNKIVRIAQGDKAEVPAGAEVVDLGDATLLPGFIDAHVHLSGQSSDNWYGDFFDNMMRFPAEQALYGAYYARITLEAGFTSVRDVGSTDWVALGLRNAIDAGKVPGPRMLVSNYAVGSTGGHADMDPIPPHKLPLAGPLQGVCNGPEECRAAVRYQIKYGANVIKFMPSGGVLSLSDPVDAPELSQDEMNAVIGESHAWGRKVAAHAHGDKAAKMAVAAGVDSIEHGSFIEDDTLRAMKAKNVYLVPTISAIAHVEEKIGTFPPVIAEKGRAAAAHLRQTFRHAVQIGVPIALGTDAGVGAHGSNAREFRYMVENGLTPAQALLAGTANAARLLGTFDRVGTLEAGKLADVVAVPGNPIADITVTERPLFVMKDGVVVRRDAVR
modifications: exemplary polypeptide
In the case of B3, the “T50 (temperature at which 50% of the initial activity was maintained)” value in data set [1] is below 63.2 °C. In data set [2], the “Specific OTA detoxification activities in % compared to the enzyme of SEQ ID NO: 1, pH 6.0” value came to 102% and the “Specific OTA detoxification activities in % compared to the enzyme of SEQ ID NO: 1, pH 7.5” value came out at 75%.

B4: 68 (protein)
chain: MTTRTRILTAFLSLLAANACAADAAPAAPHTVVLRAARMFDGASGKLVDHPQLTIVGNKIVRIAQGDKAEVPAGAEVVDLGDATLLPGFIDAHVHLSGQSSDNWYGDFFDNMMRFPAEQALYGAYYARITLEAGFTSVRDVGSTDWVALGLRNAIDAGKVPGPRMLVSNYAVGSTGGHADQDPIPPHKLPLAGPLQGVCNGPEECRAAVRYQIKYGANVIKFMPSGGVLSLSDPVDAPELSQDEMNAVIGESHAWGRKVAAHAHGDKAAKMAVAAGVDSIEHGSFIEDDTLRAMKAKNVYLVPTISAIAHVEEKIGTFPPVIAEKGRAAAAHLRQTFRHAVQIGVPIALGTDAGVGPHGSNAREFRYMVENGLTPAQALLAGTANAARLLGTFDRVGTLEAGKLADVVAVPGNPIADITVTERPLFVMKDGVVVRRDAVR
modifications: exemplary polypeptide
Consider B4, for which the “T50 (temperature at which 50% of the initial activity was maintained)” value in data set [1] is 70.7-72.6 °C. Besides, in data set [2], the “Specific OTA detoxification activities in % compared to the enzyme of SEQ ID NO: 1, pH 6.0” value stood at 70% and the “Specific OTA detoxification activities in % compared to the enzyme of SEQ ID NO: 1, pH 7.5” value was found to be 67%.

B5: 63 (protein)
chain: MTTRTRILTAFLSLLAANACAADAAPAAPHTVVLRAARMFDGASGKLVDHPQLTIVGNKIVRIAQGDKAEVPAGAEVVDLGDATLLPGFIDAHVHLSGQSSDNWYGDFFDNMMRFPAEQALYGAYYARITLEAGFTSVRDVGSTDWVALGLRNAIDAGKVPGPRMLVSNYAVGSTGGHADQDPIPPHKLPLAGPLQGVCNGPEECRAAVRYQIKYGANVIKFMPSGGVLSLSDPVDAPQLSQDEMNAVIGESHAWGRKVAAHAHGDKAAKMAVAAGVDSIEHGSFIEDDTLRAMKAKNVYLVPTISAIAHVEEKIGTFPPVIAEKGRAAAAHLRQTFRHAVQIGVPIALGTDAGVGAHGSNAREFRYMVENGLTPAQALLAGTANAARLLGTFDRVGTLEAGKLADVVAVPGNPIADITVTERPLFVMKDGVVVRRDAVR
modifications: exemplary polypeptide
For B5, the “T50 (temperature at which 50% of the initial activity was maintained)” value in data set [1] is 72-74 °C. Besides, in data set [2], the “Specific OTA detoxification activities in % compared to the enzyme of SEQ ID NO: 1, pH 6.0” value was determined as 43% and the “Specific OTA detoxification activities in % compared to the enzyme of SEQ ID NO: 1, pH 7.5” value is listed as 112%.

B6: 64 (protein)
chain: MTTRTRILTAFLSLLAANACAADAAPAAPHTVVLRAARMFDGASGKLVDHPQLTIVGNKIVRIAQGDKAEVPAGAEVVDLGDATLLPGFIDAHVHLSGQSSDNWYGDFFDNMMRFPAEQALYGAYYARITLEAGFTSVRDVGETDWVALGLRNAIDAGKVPGPRMLVSNYAVGSTGGHADQDPIPPHKLPLAGPLQGVCNGPEECRAAVRYQIKYGANVIKFMPSGGVLSLSDPVDAPELSQDEMNAVIGESHAWGRKVAAHAHGDKAAKMAVAAGVDSIEHGSFIEDDTLRAMKAKNVYLVPTISAIAHVEEKIGTFPPVIAEKGRAAAAHLRQTFRHAVQIGVPIALGTDAGVGAHGSNAREFRYMVENGLTPAQALLAGTANAARLLGTFDRVGTLEAGKLADVVAVPGNPIADITVTERPLFVMKDGVVVRRDAVR
modifications: exemplary polypeptide
For B6, the “T50 (temperature at which 50% of the initial activity was maintained)” value in data set [1] is 63-64 °C. For the same molecule, in data set [2], the “Specific OTA detoxification activities in % compared to the enzyme of SEQ ID NO: 1, pH 6.0” value worked out at 36% and the “Specific OTA detoxification activities in % compared to the enzyme of SEQ ID NO: 1, pH 7.5” value is recorded as 146%.

B7: 67 (protein)
chain: MTTRTRILTAFLSLLAANACAADAAPAAPHTVVLRAARMFDGASGKLVDHPQLTIVGNKIVRIAQGDKAEVPAGAEVVDLGDATLLPGFIDAHVHLSGQSSDNWYGDFFDNMMRFPAEQALYGAYYARITLEAGFTSVRDVGSTDWVALGLRNAIDAGKVPGPRMLVSNYAVGSTGGHADQDPIPPHKLPLAGPLQGVCNGPEECRAAVRYQIKYGANVIKFMPSGGVLSLSDPVDAPELSQDEMNAVIGESHAWGRKVAAHAHGDKAAKMAVAAGVDSIEHGSFIEDDTLRAMKAKNVYLVPTISAIAHVEEKIGTFPPVIAEKGRAAAAHLRQTFRHAVQIGVPIALGTDAGAGAHGSNAREFRYMVENGLTPAQALLAGTANAARLLGTFDRVGTLEAGKLADVVAVPGNPIADITVTERPLFVMKDGVVVRRDAVR
modifications: exemplary polypeptide
On to B7, for which, in data set [1], the “T50 (temperature at which 50% of the initial activity was maintained)” value was below 63.2 °C. Besides, in data set [2], the “Specific OTA detoxification activities in % compared to the enzyme of SEQ ID NO: 1, pH 6.0” value turned out to be 51% and the “Specific OTA detoxification activities in % compared to the enzyme of SEQ ID NO: 1, pH 7.5” value turned out to be 28%.

B8: 61 (protein)
chain: MTTRTRILTAFLSLLAANACAADAAPAAPHTVVLRAARMFDGASGKLVDHPQLTIVGNKIVRIAQGDKAEVPAGAEVVDLGDATLLPGFIDAHVHLSGQSSDNWYGDFFDNMMRFPAEQALYGAYYARITLEAGFTSVRDVGSTDWVALGLRNAIDAGKVPGPRMLVSNYAVGSTGGHADQDPIPPHKLPLAGPLQGVCNGPEECRAAVRYQIKYGANVIKFMPSGGVLSLSDPVDAPELSQDEMNAVIGESHAWGRKVAAHAHGDKAAKMAVAAGVDSIEHGSFIEDDTLRAMKAKNVYLVPTISAIAHVEEKIGTFPPVIAEKGRAAAAHLRQTFRHAVQIGVPIALGTDAGTGAHGSNAREFRYMVENGLTPAQALLAGTANAARLLGTFDRVGTLEAGKLADVVAVPGNPIADITVTERPLFVMKDGVVVRRDAVR
modifications: exemplary polypeptide
B8: the “T50 (temperature at which 50% of the initial activity was maintained)” value in data set [1] was 66-68 °C. In addition, in data set [2], the “Specific OTA detoxification activities in % compared to the enzyme of SEQ ID NO: 1, pH 6.0” value turned out to be 15% and the “Specific OTA detoxification activities in % compared to the enzyme of SEQ ID NO: 1, pH 7.5” value worked out at 34%.

B9: 66 (protein)
chain: MTTRTRILTAFLSLLAANACAADAAPAAPHTVVLRAARMFDGASGKLVDHPQLTIVGNKIVRIAQGDKAEVPAGAEVVDLGDATLLPGFIDAHVHLSGQSSDNWYGDFFDNMMRFPAEQALYGAYYARITLEAGFTSVRDVGSTDWVALGLRNAIDAGKVPGPRMLVSNYAVGSTGGHADQDPIPPHKLPLAGPLQGVCNGPEECRAAVRYQIKYGANVIKFMPSGGVLSLSDPVDAPELSQDEMNAVIGESHAWGRKVAAHAHGDKAAKMAVAAGVDSIEHGSFIEDDTLRAMKAKNVYLVPTISAIAHAEEKIGTFPPVIAEKGRAAAAHLRQTFRHAVQIGVPIALGTDAGVGAHGSNAREFRYMVENGLTPAQALLAGTANAARLLGTFDRVGTLEAGKLADVVAVPGNPIADITVTERPLFVMKDGVVVRRDAVR
modifications: exemplary polypeptide
For B9, the “T50 (temperature at which 50% of the initial activity was maintained)” value in data set [1] was 65.3-66.9 °C. Besides, in data set [2], the “Specific OTA detoxification activities in % compared to the enzyme of SEQ ID NO: 1, pH 6.0” value was 15% and the “Specific OTA detoxification activities in % compared to the enzyme of SEQ ID NO: 1, pH 7.5” value is 15%.

The values are drawn from patent publication US20240352438A1, “MEANS AND METHODS FOR DETOXIFYING OCHRATOXIN A” (DSM Austria GmbH, priority 2021, published 2024).
